Reference: paper PMC9850916 (Biochemistry, 2022)

Columns and labels:
Experiment in all cases: SPR
[1] = target: IgG1-Fc fragment produced by Expi293 cells (human, N-glycosylated)
[2] = target: maltose-binding protein-linked IgG1-Fc fragment ( | human, N-glycosylated Fc)
[3] = target: papain-digested Fc fragment of commercially available rituximab (human, N-glycosylated)

B1: mutant human FcγRIIIa (V158) ectodomain (amino acid residues 1–175) with nine amino acid mutations a (receptor)
chain: RTEDLPKAEVILEPQWNRVLEKDSVTLKCRGAYSPEDNSTQWFHNESLISSQASSYLIDAATVDDSGEYRCQTSLSTLSDPVQLEVHIGWLLLQAPRWEFKEGDPIHLRCHSWKNTALHKVTYLQNGKGRKYFHHNSDFYIPKATLKDSGSYSCRGLVGSKNVSSETVNITITQG
B1 showed a Kd [1] of 1680 nM, a koff [1] of 0.0802 s⁻¹ and a kon [1] of 47800 M⁻¹ s⁻¹. The Kd [2] was 3470 nM, the koff [2] was 0.0635 s⁻¹ and the kon [2] was 18400 M⁻¹ s⁻¹. The Kd [3] was 1660 nM, the koff [3] was 0.0721 s⁻¹ and the kon [3] was 43900 M⁻¹ s⁻¹.
